{
  "source": "patent US20120087917A1",
  "key": {"[1]": {"target": "LOXL2 (lysyl oxidase-like 2) (human) (UniProt Q9Y4K0)", "sequence (Q9Y4K0 26-774 limits assumed)": "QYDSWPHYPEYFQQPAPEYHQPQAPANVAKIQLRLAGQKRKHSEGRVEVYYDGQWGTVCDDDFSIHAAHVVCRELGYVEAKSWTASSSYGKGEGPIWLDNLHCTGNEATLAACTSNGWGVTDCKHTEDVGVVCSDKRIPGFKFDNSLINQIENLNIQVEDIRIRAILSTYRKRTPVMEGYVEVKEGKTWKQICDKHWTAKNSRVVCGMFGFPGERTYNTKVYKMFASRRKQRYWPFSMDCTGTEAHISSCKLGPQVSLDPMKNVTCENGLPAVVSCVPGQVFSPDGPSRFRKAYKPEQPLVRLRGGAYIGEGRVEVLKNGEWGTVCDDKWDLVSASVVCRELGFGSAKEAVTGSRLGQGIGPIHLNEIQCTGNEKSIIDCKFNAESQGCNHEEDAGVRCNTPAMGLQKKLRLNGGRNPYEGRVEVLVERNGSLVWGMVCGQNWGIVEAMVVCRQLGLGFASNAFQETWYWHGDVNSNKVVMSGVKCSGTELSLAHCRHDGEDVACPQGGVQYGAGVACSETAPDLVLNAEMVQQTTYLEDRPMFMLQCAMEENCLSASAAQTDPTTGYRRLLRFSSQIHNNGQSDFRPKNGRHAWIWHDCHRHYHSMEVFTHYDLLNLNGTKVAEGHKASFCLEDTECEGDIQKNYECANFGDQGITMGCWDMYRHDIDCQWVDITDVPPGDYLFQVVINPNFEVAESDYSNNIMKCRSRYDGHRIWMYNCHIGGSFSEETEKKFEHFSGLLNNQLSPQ", "experiment": "cell-based or functional assay"}, "[2]": {"target": "LOXL2 (lysyl oxidase-like 2) (human) (UniProt Q9Y4K0)", "experiment": "SPR, Bio-Rad ProteOn, amine coupling, 25 C"}},
  "data": [
    {"binder": "anti-LOXL2 antibody AB0023 (murine monoclonal antibody) (antibody, V domains shown) VH: QVQLQQSGAELVRPGTSVKVSCKASGYAFTYYLIEWVKQRPGQGLEWIGVINPGSGGTNYNEKFKGKATLTADKSSSTAYMQLSSLTSDDSAVYFCARNWMNFDYWGQGTTLTVSS VL: DIVMTQAAPSVSVTPGESVSISCRSSKSLLHSNGNTYLYWFLQRPGQSPQFLIYRMSNLASGVPDRFSGSGSGTAFTLRISRVEAEDVGVYYCMQHLEYPYTFGGGTKLEIK", "values": [
      {"measurement": "apparent IC50, LOXL2 enzymatic activity (amplex red/HRP coupled assay, 1,5-diaminopentane substrate)", "setting": "[1]", "value": 30, "unit": "nM"},
      {"measurement": "α (effect of the antibody on substrate affinity; mode of inhibition)", "setting": "[1]", "value": 1},
      {"measurement": "β (effect of the antibody on the rate of the enzyme; mode of inhibition)", "setting": "[1]", "value": 0.5},
      {"measurement": "Kd", "setting": "[2]", "value": "0.1 to 1", "unit": "nM"},
      {"measurement": "t1/2", "setting": "[2]", "value": 1.65, "unit": "h"}
    ]}
  ]
}
